{"source": "patent US20220064277A1", "about": "(NEURACLE SCIENCE, published 2022)", "target": "human FAM19A5-Fc protein (Lot# 170815) (human, UniProt Q7Z5A7 44-132)", "sequence (Q7Z5A7 other isoform, or with tags, fused parts or gaps)": "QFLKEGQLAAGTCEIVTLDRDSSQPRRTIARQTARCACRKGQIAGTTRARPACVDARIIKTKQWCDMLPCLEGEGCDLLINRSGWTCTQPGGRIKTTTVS", "assay": "cell-based or functional assay"}
{"binder": "anti-FAM19A5 antibody (clone \"1-30\"; Lot# A5m180831) (antibody, V domains shown) VH: AVTLDESGGGLQTPGGALRLSCKASGFDFESFNMFWVRQAPGKGLEYVSQISSSEEDENYAPAVKGRATISRDNGQSTLYLQMNSLRAEDTGTYYCAKSSYDCPYGHCSSGVDSAGEIDAWGHGTEVIVSS VL: ALTQPSSVSANPGETVKITCSGGGSEEEQYYYGWYQQKPGSAPVTLIYQDEERPSDIPSRFSGSTSGSTATLTITGVQAGDEADYYCGSWDSEDEDHFGAGTTLTVL", "values": [{"measurement": "IC50 for inhibition of the FAM19A5-Fc-enhanced TNF-α production by LPS-stimulated BV2 cells (mouse TNF-α ELISA)", "value": 11.5, "unit": "µg/mL"}]}
